Reference: publication PMC8032703

Experiments:
[1] = biological target: recombinant FlaB (Vibrio vulnificus MO6-24/O)
[2] = biological target: FlaBΔN0C0 (truncated FlaB, from L54 to S332) (Vibrio vulnificus MO6-24/O)
[3] = biological target: FlaBΔC1 (truncated FlaB, from M1 to A287) (Vibrio vulnificus MO6-24/O)
[4] = biological target: FlaBΔN1 (truncated FlaB, from K162 to G377) (Vibrio vulnificus MO6-24/O)
[5] = biological target: recombinant FlaB (Vibrio vulnificus MO6-24/O); remark: listed apart in the source
[6] = biological target: FlaBΔC0 (truncated FlaB, from M1 to S332) (Vibrio vulnificus MO6-24/O)
[7] = biological target: recombinant FlaB (Vibrio vulnificus MO6-24/O); remark: listed apart in the source
[8] = biological target: recombinant FlaB (Vibrio vulnificus MO6-24/O); remark: listed apart in the source

Row | Substance | EC50 of rDegQ (0-1.2 μM) proteolysing 50% of 1 μM rFlaB in vitro (SDS-PAGE densitometry), representative experiment [1] [nM] | averaged EC50 of rDegQ for in vitro proteolysis of 1 μM FlaBΔN0C0 [2] [nM] | averaged EC50 of rDegQ for in vitro proteolysis of 1 μM FlaBΔC1 [3] [nM] | averaged EC50 of rDegQ for in vitro proteolysis of 1 μM FlaBΔN1 [4] [nM] | averaged EC50 of rDegQ for in vitro proteolysis of 1 μM rFlaB (three independent experiments) [5] [nM] | averaged EC50 of rDegQ for in vitro proteolysis of 1 μM FlaBΔC0 [6] [nM] | averaged EC50 of rDegQ for in vitro proteolysis of 1 μM rFlaB, as given for comparison with the FlaC mutant (Fig. 7b) [7] [nM] | protection of 1 μM rFlaB from proteolysis by 1.08 μM rDegQ with rFlaJ 0-6.67 μM; percent of rFlaB left at 0.56 μM FlaJ [8] [%]
1 | recombinant DegQ (serine protease of the HtrA family) (enzyme) | 140 | 320 | 340 | 420 | 130 | 310 | 140 | 
2 | recombinant FlaJ (flagellin-specific chaperone) (natural protein) |  |  |  |  |  |  |  | 77
